Positions count from the first letter of the chain named. Names and notes keep the numbering of the source.
T1: CIRV p19-WT (Carnation Italian ringspot virus, UniProt Q66104 1-172)
T1 sequence: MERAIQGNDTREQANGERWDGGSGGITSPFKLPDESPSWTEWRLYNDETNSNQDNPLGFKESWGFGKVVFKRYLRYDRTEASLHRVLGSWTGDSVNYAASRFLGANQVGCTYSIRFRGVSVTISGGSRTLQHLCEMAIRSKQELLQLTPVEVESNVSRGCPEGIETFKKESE

B1: wild-type p19 protein from the Carnation Italian ringspot virus (natural protein)
chain: T1 sequence
notes: p19 viral suppressor of RNA silencing, Carnation Italian ringspot virus (CIRV), full-length construct, codon-optimized for E. coli, in pHis-parallel 2; Crystallised in complex with GL2 siRNA duplex; also called p19-WT; CIRV p19; source: E. coli BL21 DE3, purified (Nickel resin, TEV cleavage, size-exclusion chromatography); not shown: His6, N-terminal, cleaved
B2: p19-T111S mutant of the Carnation Italian ringspot virus p19 protein (natural protein, UniProt Q66104 1-172, looked up)
chain: T1 sequence with T111S
notes: Crystallised in complex with GL2 siRNA duplex; also called S111; source: E. coli BL21 DE3, purified (Nickel resin, TEV cleavage, size-exclusion chromatography); not shown: His6, N-terminal, cleaved
B3: p19-T111H mutant of the Carnation Italian ringspot virus p19 protein (natural protein, UniProt Q66104 1-172, looked up)
chain: T1 sequence with T111H
notes: Crystallised in complex with GL2 siRNA duplex; also called H111; source: E. coli BL21 DE3, purified (Nickel resin, TEV cleavage, size-exclusion chromatography); not shown: His6, N-terminal, cleaved
B4: GL2 siRNA duplex (dsRNA)
RNA 1: CGUACGCGGAAUACUUCGAUU
RNA 2: UCGAAGUAUUCCGCGUACGUU
modifications: 5' phosphorylated strands; text says deoxythymidine 2-nt overhangs, but printed as UU

Assays:
[1] = target: the molecule itself; assay: crystal structure; p19 homodimer in complex with GL2 siRNA duplex; hanging drop vapour diffusion at 4 °C, 3-12% PEG 1500, 100 mM sodium acetate pH 4.6, 10-40 mM MgCl2; space group P1
[2] = target: T1, CIRV p19-WT; assay: X-ray crystallography; 2.2 A; Protein in 20 mM Tris pH 7.4, 150 mM NaCl, 1 mM TCEP before crystallization; crystallization conditions not in the material; conditions: protein: recombinant; tags: N-terminal His6 removed with TEV protease; chain copies: 2; 19 bp, 3' overhang 2 nt on both strands

Binder | binding result [1] | binding result [2]
B1 | binds | –
B2 | binds | –
B3 | binds | –
B4 | – | binds

Reference: paper PMC6551489, “Structural insights into interactions between viral suppressor of RNA silencing protein p19 mutants and small RNAs” (FEBS Open Bio, 2019)
